Results: patent publication US20260125472A1 (HEFEI TG IMMUNOPHARMA, published 2026)

T1: Trop2 on A-375-Trop2 melanoma cells (UniProt P09758 27-323, limits assumed)
T1 construct: whole, on cells
T1 sequence (looked up): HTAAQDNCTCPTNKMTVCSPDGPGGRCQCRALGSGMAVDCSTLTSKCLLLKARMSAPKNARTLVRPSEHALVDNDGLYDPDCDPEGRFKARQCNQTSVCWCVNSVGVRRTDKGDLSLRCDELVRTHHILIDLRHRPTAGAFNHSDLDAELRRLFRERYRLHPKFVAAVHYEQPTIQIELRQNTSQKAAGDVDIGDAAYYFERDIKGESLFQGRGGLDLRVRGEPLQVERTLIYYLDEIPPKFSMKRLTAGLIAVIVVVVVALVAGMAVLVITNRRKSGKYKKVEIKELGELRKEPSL

T2: Trop2 protein (UniProt P09758 27-274)
T2 construct: Bought recombinant protein; also called Trop2-Biotin protein (biotin-labelled, bridging ELISA)
T2 sequence (looked up): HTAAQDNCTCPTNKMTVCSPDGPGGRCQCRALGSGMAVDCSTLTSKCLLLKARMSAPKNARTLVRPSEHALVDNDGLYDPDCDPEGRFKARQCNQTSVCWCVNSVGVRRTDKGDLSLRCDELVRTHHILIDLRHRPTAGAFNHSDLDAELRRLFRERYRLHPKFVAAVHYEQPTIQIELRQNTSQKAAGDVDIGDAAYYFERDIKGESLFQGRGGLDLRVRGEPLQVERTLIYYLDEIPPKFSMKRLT

B1: Cross314×Trop2 (bispecific antibody)
scFv: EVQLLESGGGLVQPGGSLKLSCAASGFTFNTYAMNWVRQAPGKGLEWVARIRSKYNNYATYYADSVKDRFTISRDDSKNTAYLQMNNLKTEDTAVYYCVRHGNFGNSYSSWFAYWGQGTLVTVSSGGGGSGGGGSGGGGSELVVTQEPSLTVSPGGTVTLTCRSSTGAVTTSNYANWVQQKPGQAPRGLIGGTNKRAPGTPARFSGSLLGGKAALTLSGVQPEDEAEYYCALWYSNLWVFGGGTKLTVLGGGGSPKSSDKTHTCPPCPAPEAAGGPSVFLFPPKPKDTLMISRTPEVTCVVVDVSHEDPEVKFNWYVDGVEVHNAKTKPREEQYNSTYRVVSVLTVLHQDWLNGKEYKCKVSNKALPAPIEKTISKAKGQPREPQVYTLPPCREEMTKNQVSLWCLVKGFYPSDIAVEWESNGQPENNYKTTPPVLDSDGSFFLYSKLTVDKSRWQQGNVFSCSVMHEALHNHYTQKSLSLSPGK
heavy: QVQLQQSGSELKKPGASVKVSCKASGYTFTNYGMNWVKQAPGQGLKWMGWINTYTGEPTYTDDFKGRFAFSLDTSVSTAYLQISSLKADDTAVYFCARGGFGSSYWYFDVWGQGSLVTVSSASTKGPSVFPLAPSSKSTSGGTAALGCLVKDYFPEPVTVSWNSGALTSGVHTFPAVLQSSGLYSLSSVVTVPSSSLGTQTYICNVNHKPSNTKVDKKVEPKSSDKTHTCPPCPAPEAAGGPSVFLFPPKPKDTLMISRTPEVTCVVVDVSHEDPEVKFNWYVDGVEVHNAKTKPREEQYNSTYRVVSVLTVLHQDWLNGKEYKCKVSNKALPAPIEKTISKAKGQPREPQVCTLPPSREEMTKNQVSLSCAVKGFYPSDIAVEWESNGQPENNYKTTPPVLDSDGSFFLVSKLTVDKSRWQQGNVFSCSVMHEALHNHYTQKSLSLSPGK
light: DIQLTQSPSSLSASVGDRVSITCKASQDVSIAVAWYQQKPGKAPKLLIYSASYRYTGVPDRFSGSGSGTDFTLTISSLQPEDFAVYYCQQHYITPLTFGAGTKVEIKRTVAAPSVFIFPPSDEQLKSGTASVVCLLNNFYPREAKVQWKVDNALQSGNSQESVTEQDSKDSTYSLSSTLTLSKADYEKHKVYACEVTHQGLSSPVTKSFNRGEC
B2: Cross323×Trop2 (bispecific antibody)
scFv: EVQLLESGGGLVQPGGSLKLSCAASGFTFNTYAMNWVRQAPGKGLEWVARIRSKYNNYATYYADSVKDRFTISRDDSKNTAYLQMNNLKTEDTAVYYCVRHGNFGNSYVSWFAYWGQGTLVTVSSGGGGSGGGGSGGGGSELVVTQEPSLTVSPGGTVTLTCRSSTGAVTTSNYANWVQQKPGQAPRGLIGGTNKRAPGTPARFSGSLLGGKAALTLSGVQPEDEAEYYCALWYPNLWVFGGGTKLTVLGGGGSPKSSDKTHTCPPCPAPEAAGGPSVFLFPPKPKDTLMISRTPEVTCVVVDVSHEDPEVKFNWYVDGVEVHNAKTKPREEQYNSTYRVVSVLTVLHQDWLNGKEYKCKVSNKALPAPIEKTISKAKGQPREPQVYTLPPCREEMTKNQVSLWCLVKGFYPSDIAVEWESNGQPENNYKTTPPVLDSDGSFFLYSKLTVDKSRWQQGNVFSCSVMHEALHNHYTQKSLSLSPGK
heavy: B1 heavy
light: B1 light
B3: Cross316×Trop2 (bispecific antibody)
scFv: not shown
heavy: B1 heavy
light: B1 light
B4: Cross318×Trop2 (bispecific antibody)
scFv: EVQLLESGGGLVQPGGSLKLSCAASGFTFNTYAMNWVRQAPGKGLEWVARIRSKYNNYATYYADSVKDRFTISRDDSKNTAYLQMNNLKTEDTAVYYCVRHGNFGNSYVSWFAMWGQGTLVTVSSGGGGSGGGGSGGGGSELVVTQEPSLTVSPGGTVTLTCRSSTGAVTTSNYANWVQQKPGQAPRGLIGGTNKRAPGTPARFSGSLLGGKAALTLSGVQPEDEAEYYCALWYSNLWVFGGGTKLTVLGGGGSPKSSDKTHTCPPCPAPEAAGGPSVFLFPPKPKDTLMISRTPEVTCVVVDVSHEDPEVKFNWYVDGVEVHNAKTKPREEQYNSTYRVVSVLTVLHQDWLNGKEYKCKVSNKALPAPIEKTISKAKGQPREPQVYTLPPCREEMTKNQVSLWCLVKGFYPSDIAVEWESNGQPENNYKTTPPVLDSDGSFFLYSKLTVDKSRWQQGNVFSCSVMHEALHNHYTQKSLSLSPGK
heavy: B1 heavy
light: B1 light
B5: Cross325×Trop2 (bispecific antibody)
scFv: not shown
heavy: B1 heavy
light: B1 light
B6: Cross326×Trop2 (bispecific antibody)
scFv: not shown
heavy: B1 heavy
light: B1 light
B7: Cross303×PDL1 (bispecific antibody, human IgG1, kappa, L234A L235A)
scFv: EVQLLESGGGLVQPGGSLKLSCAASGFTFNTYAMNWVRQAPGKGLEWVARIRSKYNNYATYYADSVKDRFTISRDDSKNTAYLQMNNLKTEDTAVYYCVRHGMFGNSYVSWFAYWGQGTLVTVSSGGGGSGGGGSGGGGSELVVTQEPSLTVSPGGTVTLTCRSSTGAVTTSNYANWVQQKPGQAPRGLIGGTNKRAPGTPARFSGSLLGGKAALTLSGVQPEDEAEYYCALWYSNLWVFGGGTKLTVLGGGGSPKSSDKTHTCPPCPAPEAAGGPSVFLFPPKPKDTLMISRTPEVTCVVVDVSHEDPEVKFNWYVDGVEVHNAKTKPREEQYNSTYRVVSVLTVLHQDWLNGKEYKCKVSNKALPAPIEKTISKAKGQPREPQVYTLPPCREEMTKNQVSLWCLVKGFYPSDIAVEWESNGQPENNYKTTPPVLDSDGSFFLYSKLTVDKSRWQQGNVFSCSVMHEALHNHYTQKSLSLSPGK
heavy: QVQLVQSGAEVKKPGASVKVSCKASGYSFTGYYMHWVRQAPGQGLEWIGRINPYNGATTYSQNFKDRATMTVDTSISTAYMELSRLRSDDTAVYYCVPTGMGYFLMDYWGQGTLVTVSSASTKGPSVFPLAPSSKSTSGGTAALGCLVKDYFPEPVTVSWNSGALTSGVHTFPAVLQSSGLYSLSSVVTVPSSSLGTQTYICNVNHKPSNTKVDKKVEPKSCDKTHTCPPCPAPEAAGGPSVFLFPPKPKDTLMISRTPEVTCVVVDVSHEDPEVKFNWYVDGVEVHNAKTKPREEQYNSTYRVVSVLTVLHQDWLNGKEYKCKVSNKALPAPIEKTISKAKGQPREPQVCTLPPSREEMTKNQVSLSCAVKGFYPSDIAVEWESNGQPENNYKTTPPVLDSDGSFFLVSKLTVDKSRWQQGNVFSCSVMHEALHNHYTQKSLSLSPGK
light: DIQLTQSPSFLSASVGDRVTITCKASQDVGSAVVWYQQKPGKAPKLLIYWASTRHTGVPSRFSGSGSGTEFTLTISSLQPEDFATYFCQQFTSYPTFGQGTKLEIKRTVAAPSVFIFPPSDEQLKSGTASVVCLLNNFYPREAKVQWKVDNALQSGNSQESVTEQDSKDSTYSLSSTLTLSKADYEKHKVYACEVTHQGLSSPVTKSFNRGEC
B8: Cross308×PDL1 (bispecific antibody, human IgG1, kappa, L234A L235A)
scFv: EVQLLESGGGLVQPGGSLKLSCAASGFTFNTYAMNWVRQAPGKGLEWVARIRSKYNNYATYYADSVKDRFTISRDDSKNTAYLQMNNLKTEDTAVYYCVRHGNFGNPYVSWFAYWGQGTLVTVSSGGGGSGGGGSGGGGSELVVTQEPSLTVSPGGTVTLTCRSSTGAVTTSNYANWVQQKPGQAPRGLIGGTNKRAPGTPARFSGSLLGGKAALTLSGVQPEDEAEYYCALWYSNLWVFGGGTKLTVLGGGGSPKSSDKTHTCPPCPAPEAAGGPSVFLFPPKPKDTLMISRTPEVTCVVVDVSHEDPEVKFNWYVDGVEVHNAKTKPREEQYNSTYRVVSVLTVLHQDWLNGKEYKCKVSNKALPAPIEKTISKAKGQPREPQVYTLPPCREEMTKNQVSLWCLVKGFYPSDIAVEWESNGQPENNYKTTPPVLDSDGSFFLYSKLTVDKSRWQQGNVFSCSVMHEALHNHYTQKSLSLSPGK
heavy: B7 heavy
light: B7 light
B9: Cross307×PDL1 (bispecific antibody, human IgG1, kappa, L234A L235A)
scFv: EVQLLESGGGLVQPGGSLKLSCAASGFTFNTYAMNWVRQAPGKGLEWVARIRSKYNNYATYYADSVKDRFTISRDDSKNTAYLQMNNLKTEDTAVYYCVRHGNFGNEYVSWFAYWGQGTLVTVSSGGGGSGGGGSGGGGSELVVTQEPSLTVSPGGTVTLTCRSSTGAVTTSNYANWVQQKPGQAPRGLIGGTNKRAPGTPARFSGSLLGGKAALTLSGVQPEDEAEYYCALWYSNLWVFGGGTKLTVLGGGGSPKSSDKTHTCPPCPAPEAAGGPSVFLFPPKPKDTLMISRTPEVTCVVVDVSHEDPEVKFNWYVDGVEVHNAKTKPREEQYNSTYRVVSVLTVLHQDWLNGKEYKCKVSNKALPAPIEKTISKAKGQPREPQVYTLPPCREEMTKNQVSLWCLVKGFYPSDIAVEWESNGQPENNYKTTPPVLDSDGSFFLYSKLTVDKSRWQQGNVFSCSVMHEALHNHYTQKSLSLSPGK
heavy: B7 heavy
light: B7 light
B10: Cross312×PDL1 (bispecific antibody, human IgG1, kappa, L234A L235A)
scFv: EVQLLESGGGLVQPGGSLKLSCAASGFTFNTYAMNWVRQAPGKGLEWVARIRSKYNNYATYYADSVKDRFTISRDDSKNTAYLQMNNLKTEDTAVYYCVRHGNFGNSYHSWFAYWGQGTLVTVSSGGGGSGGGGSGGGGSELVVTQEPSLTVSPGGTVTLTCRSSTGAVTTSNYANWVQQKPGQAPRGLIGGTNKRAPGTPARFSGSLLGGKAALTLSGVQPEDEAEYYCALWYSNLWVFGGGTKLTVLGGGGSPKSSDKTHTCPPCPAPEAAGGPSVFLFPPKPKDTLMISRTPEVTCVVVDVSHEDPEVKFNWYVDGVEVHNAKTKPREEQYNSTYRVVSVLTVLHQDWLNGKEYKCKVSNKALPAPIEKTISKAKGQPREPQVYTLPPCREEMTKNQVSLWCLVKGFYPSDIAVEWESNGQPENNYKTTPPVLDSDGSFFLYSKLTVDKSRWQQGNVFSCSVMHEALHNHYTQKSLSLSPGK
heavy: B7 heavy
light: B7 light
B11: Cross314×PDL1 (bispecific antibody, human IgG1, kappa, L234A L235A)
scFv: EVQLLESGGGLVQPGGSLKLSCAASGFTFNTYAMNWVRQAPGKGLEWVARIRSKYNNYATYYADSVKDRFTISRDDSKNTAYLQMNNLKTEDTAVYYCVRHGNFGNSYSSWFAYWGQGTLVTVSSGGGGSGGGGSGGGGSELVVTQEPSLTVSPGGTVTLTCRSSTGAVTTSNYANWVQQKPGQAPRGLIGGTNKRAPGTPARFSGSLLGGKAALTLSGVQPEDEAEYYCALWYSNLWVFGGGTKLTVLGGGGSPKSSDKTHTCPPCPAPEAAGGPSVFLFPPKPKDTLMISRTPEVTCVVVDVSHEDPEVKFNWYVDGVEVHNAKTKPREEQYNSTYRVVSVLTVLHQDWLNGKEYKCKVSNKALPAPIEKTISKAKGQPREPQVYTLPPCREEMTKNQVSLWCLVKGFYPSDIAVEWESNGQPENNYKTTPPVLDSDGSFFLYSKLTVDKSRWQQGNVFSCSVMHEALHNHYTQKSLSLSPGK
heavy: B7 heavy
light: B7 light
B12: Cross311×PDL1 (bispecific antibody, human IgG1, kappa, L234A L235A)
scFv: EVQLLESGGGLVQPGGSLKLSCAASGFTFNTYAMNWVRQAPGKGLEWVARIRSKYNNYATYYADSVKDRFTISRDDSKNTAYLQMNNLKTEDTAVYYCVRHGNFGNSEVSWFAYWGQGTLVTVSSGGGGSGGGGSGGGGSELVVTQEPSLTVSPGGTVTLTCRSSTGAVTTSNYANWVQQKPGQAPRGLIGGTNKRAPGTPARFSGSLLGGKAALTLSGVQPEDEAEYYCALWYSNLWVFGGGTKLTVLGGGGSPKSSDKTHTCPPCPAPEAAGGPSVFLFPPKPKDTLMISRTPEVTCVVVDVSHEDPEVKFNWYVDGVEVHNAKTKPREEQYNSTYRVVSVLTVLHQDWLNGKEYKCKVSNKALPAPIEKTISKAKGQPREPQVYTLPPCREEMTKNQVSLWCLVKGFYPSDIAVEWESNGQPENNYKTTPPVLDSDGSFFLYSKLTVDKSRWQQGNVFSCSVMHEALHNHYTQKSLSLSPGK
heavy: B7 heavy
light: B7 light

molecular target: T1, Trop2 on A-375-Trop2 melanoma cells; test: flow cytometry, A-375-Trop2 cells, MFI [panel B]
Experimental: (§1) (2) The tumor cells were diluted to 2×10⁶/ml with PBS and added to a 1.5 ml EP tube at a volume of 100 μl/tube, and goat serum was added thereto at 10 μl/tube. The cells were blocked at 4° C. for 30 min. The serially diluted bispecific antibodies, Cross3×Trop2, Cross303×Trop2, Cross307×Trop2, Cross308×Trop2, Cross309×Trop2, Cross310×Trop2, Cross311×Trop2, Cross312×Trop2, Cross313×Trop2, Cross314×Trop2, Cross316×Trop2, Cross317×Trop2, Cross318×Trop2, Cross323×Trop2, Cross325×Trop2, Cross326×Trop2, and Cross3×PDL1, Cross303×PDL1, Cross307×PDL1, Cross308×PDL1, Cross309×PDL1, Cross310×PDL1, Cross311×PDL1, Cross312×PDL1, Cross313×PDL1, Cross314×PDL1, Cross316×PDL1, Cross317×PDL1, Cross318×PDL1, Cross323×PDL1, Cross325×PDL1, Cross326×PDL1, and control hIgG1LALA (purchased from Bio-Tech) were added and incubated at 4° C. for 30 min. 1 ml of PBS was added to the EP tube, followed by centrifugation at 3500 rpm for 5 min at 4° C. The supernatant was discarded, and the cells were washed again with PBS. After centrifugation, the supernatant was completely discarded, and the cells were resuspended with PBS at 100 μl/tube. Alexa-647-labeled goat anti-human IgG secondary antibody (purchased from Jackson lab) was added at 1 μl/tube and incubated at 4° C. in the dark for 30 min. The cells were washed twice with PBS, and the supernatant was completely discarded after centrifugation. The cells were resuspended with PBS at 200 μl/tube and assay was performed using the flow cytometry.

Row | Binder | EC50 (read off the curve)
1 | B1 | ~1 µg/mL
2 | B2 | ~1 µg/mL
3 | B3 | ~1 µg/mL
4 | B4 | ~1 µg/mL
5 | B5 | ~1 µg/mL
6 | B6 | ~1 µg/mL

molecular target: T3, PDL1 protein (UniProt Q9NZQ7 19-238); test: ELISA, coated PDL1 protein, OD450 [panel A]
T3 construct: Bought recombinant protein
T3 sequence (Q9NZQ7 19-238 limits assumed): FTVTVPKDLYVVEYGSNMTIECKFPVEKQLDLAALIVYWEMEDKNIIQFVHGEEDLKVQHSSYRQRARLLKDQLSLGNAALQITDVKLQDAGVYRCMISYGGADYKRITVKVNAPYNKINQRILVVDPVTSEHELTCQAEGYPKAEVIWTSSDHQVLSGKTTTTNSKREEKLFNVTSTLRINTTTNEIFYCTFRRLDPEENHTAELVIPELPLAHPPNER
Experimental: (3) PDL1 protein (purchased from Acro) was diluted to 2 μg/ml with PBS buffer, added to a 96-well plate at a volume of 100 μL/well, and placed at 4° C. overnight. The PBS buffer in the 96-well plate was aspirated, and the plate was washed 6 times with PBST (pH 7.2 PBS containing 0.10% Tween 20) buffer. Then, PBS/10% BSA was added at 200 μL/well and incubated at 37° C. for 2 h for blocking. The blocking solution was removed, and the plate was washed six times with PBST. Then, the to-be-tested bispecific antibodies serially diluted with PBST/0.05% BSA, Cross3×PDL1, Cross303×PDL1, Cross307×PDL1, Cross308×PDL1, Cross309×PDL1, Cross310×PDL1, Cross311×PDL1, Cross312×PDL1, Cross313×PDL1, Cross314×PDL1, Cross316×PDL1, Cross317×PDL1, Cross318×PDL1, Cross323×PDL1, Cross325×PDL1, Cross326×PDL1, and control IgG1LALA (purchased from Bio-Tech) were added at 100 μL/well, and incubated at 37° C. for 1 h. The reaction system was removed, and the plate was washed 6 times with PBST. Then, the cells were incubated at 37° C. for 1 h with HRP (horseradish peroxidase)-labeled anti-human secondary antibody (Fab specific) (purchased from Sigma) serially diluted with PBST/0.05% BSA at 100 μL/well. After the plate was washed six times with PBST, TMB (tetramethylbenzidine) was added at 80 μL/well and incubated at room temperature for 3 min. 4 M sulfuric acid was added at 80 μL/well to terminate the reaction. The absorbance was read at 450 nm using a microplate reader.

Row | Binder | EC50 (read off the curve)
7 | B7 | ~0.2 µg/mL
8 | B8 | ~0.2 µg/mL
9 | B9 | ~0.2 µg/mL
10 | B10 | ~0.2 µg/mL
11 | B11 | ~0.2 µg/mL
12 | B12 | ~0.2 µg/mL

molecular target: T4, PDL1 on A-375 melanoma cells, HCT-15 colorectal cancer cells and A549 lung cancer cells (UniProt Q9NZQ7 19-290, limits assumed); test: flow cytometry, A549 cells, MFI [panel B]
T4 construct: whole, on cells
T4 sequence (Q9NZQ7 19-290 limits assumed): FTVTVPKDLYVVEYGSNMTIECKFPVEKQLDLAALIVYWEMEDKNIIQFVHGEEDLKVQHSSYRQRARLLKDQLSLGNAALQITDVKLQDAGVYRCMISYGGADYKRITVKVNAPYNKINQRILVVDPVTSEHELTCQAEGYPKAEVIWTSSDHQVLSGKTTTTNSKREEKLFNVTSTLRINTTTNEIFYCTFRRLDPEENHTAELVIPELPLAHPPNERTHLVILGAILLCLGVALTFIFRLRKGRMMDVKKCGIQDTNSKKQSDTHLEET
Experimental: as §1

Row | Binder | EC50 (read off the curve)
13 | B7 | ~1 µg/mL
14 | B8 | ~1 µg/mL
15 | B9 | ~1 µg/mL
16 | B10 | ~2 µg/mL
17 | B11 | ~1 µg/mL
18 | B12 | ~1 µg/mL

molecular target: T2, Trop2 protein; test: ELISA, coated Trop2 protein, OD450
Source text: In this example, the binding properties of the CD3×Trop2 and CD3×PDL1 bispecific antibody (the production method and the amino acid sequences of the heavy and light chains were shown in Example 1) were detected by using ELISA. The CD3E&D, Trop2, or PDL1 protein was coated onto 96-well plates by inventors, and the strength of the signal after the addition of the antibody was used to determine the binding properties of the antibody and the corresponding protein.
(2) Trop2 protein (purchased from Acro) was diluted to 2 μg/ml with PBS buffer, added to a 96-well plate at a volume of 100 μL/well, and placed at 4° C. overnight. The PBS buffer in the 96-well plate was aspirated, and the plate was washed 6 times with PBST (pH 7.2 PBS containing 0.1% Tween 20) buffer. Then, 200 μL/well PBS/10% BSA was added and incubated at 37° C. for 2 h for blocking. The blocking solution was removed, and the plate was washed six times with PBST. Then, the to-be-tested bispecific antibodies, Cross3×Trop2, Cross303×Trop2, Cross307×Trop2, Cross308×Trop2, Cross309×Trop2, Cross310×Trop2, Cross311×Trop2, Cross312×Trop2, Cross313×Trop2, Cross314×Trop2, Cross316×Trop2, Cross317×Trop2, Cross318×Trop2, Cross323×Trop2, Cross325×Trop2, Cross326×Trop2, and control IgG1LALA (purchased from Bio-Tech), serially diluted with PBST/0.05% BSA, were added at 100 μL/well and incubated at 37° C. for 1 h. The reaction system was removed, and the plate was washed 6 times with PBST. Then, HRP (horseradish peroxidase)-labeled anti-human secondary antibody (Fab specific) (purchased from Sigma) diluted with PBST/0.05% BSA at 100 μL/well. After the plate was washed six times with PBST, TMB (tetramethylbenzidine) was added at 80 μL/well, and incubated at room temperature for 3 min. 4 M sulfuric acid was added at 80 μL/well to terminate the reaction. The absorbance was read at 450 nm using a microplate reader.

Row | Binder | EC50 (read off the curve)
19 | B1 | ~0.008 µg/mL
20 | B2 | ~0.008 µg/mL
21 | B3 | ~0.008 µg/mL
22 | B4 | ~0.02 µg/mL
23 | B5 | ~0.008 µg/mL
24 | B6 | ~0.008 µg/mL
